Reference: patent US10130693B2, “Peptides, combination of peptides and scaffolds for use in immunotherapeutic treatment of various cancers” (Immatics Biotechnologies GmbH, priority 2015, dated 2018)

How the values were obtained:
[1] = biological target: HLA-A*02:01 (Homo sapiens, UniProt P04439, D140Y/D185E/D98H/E176V/E277Q/G131W/G231S/I119V/I121R/I166T/I218V/L300P/L318F/N151K/N90K/P208A/P217A/Q86G/Q94H/R138H/R169H/T345S); assay: MHC binding assay, UV-ligand exchange with beta2m ELISA (exchange yield), HLA-A*02; details: binding to HLA-A*02 ranged by peptide exchange yield
From the text: Candidate peptides for T cell based therapies according to the present invention were further tested for their MHC binding capacity (affinity). The individual peptide-MHC complexes were produced by UV-ligand exchange, where a UV-sensitive peptide is cleaved upon UV-irradiation, and exchanged with the peptide of interest as analyzed. Only peptide candidates that can effectively bind and stabilize the peptide-receptive MHC molecules prevent dissociation of the MHC complexes. To determine the yield of the exchange reaction, an ELISA was performed based on the detection of the light chain (β2m) of stabilized MHC complexes. The assay was performed as generally described in Rodenko et al. (Rodenko et al., 2006).
96 well MAXISorp plates (NUNC) were coated over night with 2 ug/ml streptavidin in PBS at room temperature, washed 4× and blocked for 1 h at 37° C. in 2% BSA containing blocking buffer. […] Peptide-MHC monomers of the UV-exchange reaction were diluted 100 fold in blocking buffer. Samples were incubated for 1 h at 37° C., washed four times, incubated with 2 ug/ml HRP conjugated anti-β2m for 1h at 37° C., washed again and detected with TMB solution that is stopped with […]. Absorption was measured at 450 nm. Candidate peptides that show a high exchange yield (preferably higher than 50%, most preferred higher than 75%) are generally preferred for a generation and production of antibodies or fragments thereof, and/or T cell receptors or fragments thereof, as they show sufficient avidity to the MHC molecules and prevent dissociation of the MHC complexes.

[2] = tested on: HLA-A*24; assay: MHC binding assay, UV-ligand exchange with beta2m ELISA (exchange yield), HLA-A*24; set-up: species or system human; details: binding to HLA-A*24, UV-ligand exchange
Outline: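 Peptide–MHC complexes formed by UV-ligand exchange: a UV-cleavable peptide is replaced by the test peptide, and only binders keep the complex stable. Exchange yield read by streptavidin-capture ELISA on reactions diluted 100-fold, detected with HRP anti-β2m (2 ug/ml, 1 h, 37° C) and TMB at 450 nm.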

Row | Substance | Peptide exchange (MHC class I binding score) [1] | Peptide exchange (MHC class I binding score, peptide exchange yield) [2]
1 | 3 (TLLGKQVTL; listed as Homo sapiens) [compound 3] | +++ (50%-75% = +++) | 
2 | 37 (ALINDILGELVKL; listed as Homo sapiens) [compound 37] | +++ (50%-75% = +++) | 
3 | 62 (SLFNQEVQI; listed as Homo sapiens) [compound 62] | +++ (50%-75% = +++) | 
4 | 27 (KVFGDLDQV; listed as Homo sapiens) [compound 27] | +++ (50%-75% = +++) | 
5 | 40 (SLLALPQDLQA; listed as Homo sapiens) [compound 40] | +++ (50%-75% = +++) | 
6 | 52 (ELLSSIFFL; listed as Homo sapiens) [compound 52] | +++ (50%-75% = +++) | 
7 | 329 (FAWEPSFRDQV; listed as Homo sapiens) [compound 329] | ++ (20%-49% = ++) | 
8 | 340 (SVAKTILKR; listed as Homo sapiens) [compound 340] | ++ (20%-49% = ++) | 
9 | 51 (LLLDGDFTL; listed as Homo sapiens) [compound 51] | +++ (50%-75% = +++) | 
10 | 74 (ILDETLENV; listed as Homo sapiens) [compound 74] | ++ (20%-49% = ++) | 
11 | 79 (SLVPLQILL; listed as Homo sapiens) [compound 79] | ++++ (>=75% = ++++) | 
12 | 49 (LLDESKLTL; listed as Homo sapiens) [compound 49] | +++ (50%-75% = +++) | 
13 | 25 (IQADDFRTL; listed as Homo sapiens) [compound 25] | ++ (20%-49% = ++) | 
14 | 33 (LLLPLLPPLSPSLG; listed as Homo sapiens) [compound 33] | +++ (50%-75% = +++) | 
15 | 24 (FLWNGEDSAL; listed as Homo sapiens) [compound 24] | +++ (50%-75% = +++) | 
16 | 28 (TLYSMDLMKV; listed as Homo sapiens) [compound 28] | +++ (50%-75% = +++) | 
17 | 12 (GLIYEETRGV; listed as Homo sapiens) [compound 12] | ++ (20%-49% = ++) | 

Row | Substance | Peptide exchange (MHC class I binding score) [1] | Peptide exchange (MHC class I binding score, peptide exchange yield) [2]
18 | 338 (LLYDGKLSSA; listed as Homo sapiens) [compound 338] | ++ (20%-49% = ++) | 
19 | 75 (ILDNVKNLL; listed as Homo sapiens) [compound 75] | +++ (50%-75% = +++) | 
20 | 336 (GLMDGSPHFL; listed as Homo sapiens) [compound 336] | ++ (20%-49% = ++) | 
21 | 334 (GRADALRVL; listed as Homo sapiens) [compound 334] | +++ (50%-75% = +++) | 
22 | 116 (AYVIAVHLF; listed as Homo sapiens) [compound 116] |  | ++++ (>=75% = ++++)
23 | 143 (KYIFQLNEI; listed as Homo sapiens) [compound 143] |  | +++ (50%-75% = +++)
24 | 260 (VYMNVMTRL; listed as Homo sapiens) [compound 260] |  | ++++ (>=75% = ++++)
25 | 197 (IFTDIFHYL; listed as Homo sapiens) [compound 197] |  | ++++ (>=75% = ++++)
26 | 375 (KYTDYILKI; listed as Homo sapiens) [compound 375] |  | +++ (50%-75% = +++)
27 | 204 (EYLSTCSKL; listed as Homo sapiens) [compound 204] |  | +++ (50%-75% = +++)
28 | 313 (KYTHFIQSF; listed as Homo sapiens) [compound 313] |  | ++++ (>=75% = ++++)
29 | 319 (KYSDVKNLI; listed as Homo sapiens) [compound 319] |  | ++++ (>=75% = ++++)
30 | 309 (KYYRQTLLF; listed as Homo sapiens) [compound 309] |  | ++ (20%-49% = ++)
31 | 254 (KYLESSATF; listed as Homo sapiens) [compound 254] |  | +++ (50%-75% = +++)
32 | 236 (VYLPKIPSW; listed as Homo sapiens) [compound 236] |  | +++ (50%-75% = +++)
33 | 381 (KYPASSSVF; listed as Homo sapiens) [compound 381] |  | +++ (50%-75% = +++)
34 | 298 (AYKSEVVYF; listed as Homo sapiens) [compound 298] |  | ++++ (>=75% = ++++)

The remaining lines, values ahead:

Row | Peptide exchange (MHC class I binding score) [1] | Peptide exchange (MHC class I binding score, peptide exchange yield) [2] | Substance
35 | ++++ (>=75% = ++++) |  | 22 (MLSDLTLQL; listed as Homo sapiens) [compound 22]
36 | +++ (50%-75% = +++) |  | 326 (SLLPLVWKI; listed as Homo sapiens) [compound 326]
37 | +++ (50%-75% = +++) |  | 323 (ILSVVNSQL; listed as Homo sapiens) [compound 323]
38 | + (<20% = +) |  | 23 (AQTVVVIKA; listed as Homo sapiens) [compound 23]
39 | +++ (50%-75% = +++) |  | 13 (VLRDNIQGI; listed as Homo sapiens) [compound 13]
40 | ++ (20%-49% = ++) |  | 1 (PLWGKVFYL; listed as Homo sapiens) [compound 1]
41 | +++ (50%-75% = +++) |  | 77 (IVLSTIASV; listed as Homo sapiens) [compound 77]
42 | +++ (50%-75% = +++) |  | 4 (ELAEIVFKV; listed as Homo sapiens) [compound 4]
43 | +++ (50%-75% = +++) |  | 53 (SLLSHVIVA; listed as Homo sapiens) [compound 53]
44 | ++ (20%-49% = ++) |  | 60 (FLIDTSASM; listed as Homo sapiens) [compound 60]
45 | +++ (50%-75% = +++) |  | 337 (KVLGKIEKV; listed as Homo sapiens) [compound 337]
46 | ++++ (>=75% = ++++) |  | 21 (SLYHRVLLY; listed as Homo sapiens) [compound 21]
47 | +++ (50%-75% = +++) |  | 93 (SLLTQPIFL; listed as Homo sapiens) [compound 93]
48 | +++ (50%-75% = +++) |  | 78 (LLWGHPRVA; listed as Homo sapiens) [compound 78]
49 | +++ (50%-75% = +++) |  | 45 (VLGPTPELV; listed as Homo sapiens) [compound 45]
50 | +++ (50%-75% = +++) |  | 38 (KMQEDLVTL; listed as Homo sapiens) [compound 38]
51 | +++ (50%-75% = +++) |  | 32 (ILADEAFFSV; listed as Homo sapiens) [compound 32]
52 | +++ (50%-75% = +++) |  | 65 (KLDGICWQV; listed as Homo sapiens) [compound 65]
53 | +++ (50%-75% = +++) |  | 39 (ALMAVVSGL; listed as Homo sapiens) [compound 39]
54 | +++ (50%-75% = +++) |  | 5 (SLFGQEVYC; listed as Homo sapiens) [compound 5]
55 |  | ++++ (>=75% = ++++) | 292 (FYPQIINTF; listed as Homo sapiens) [compound 292]
56 |  | ++++ (>=75% = ++++) | 185 (QYLVHVNDL; listed as Homo sapiens) [compound 185]
57 |  | ++++ (>=75% = ++++) | 293 (VYPHFSTTNLI; listed as Homo sapiens) [compound 293]
58 |  | +++ (50%-75% = +++) | 118 (KYLNSVQYI; listed as Homo sapiens) [compound 118]
59 |  | +++ (50%-75% = +++) | 145 (VYALKVRTI; listed as Homo sapiens) [compound 145]
60 |  | ++++ (>=75% = ++++) | 196 (GYIRGSWQF; listed as Homo sapiens) [compound 196]
61 |  | +++ (50%-75% = +++) | 127 (QYFTGNPLF; listed as Homo sapiens) [compound 127]
62 |  | +++ (50%-75% = +++) | 378 (VYIAELEKI; listed as Homo sapiens) [compound 378]
